Laboratory results reported in the supplement of paper PMC12636428.

Test system: Saccharomyces cerevisiae
Assay: transcriptional activation domain activity (GFP:mCherry ratio, weighted mean of sorted bins, harmonized to initial dataset scale) (arbitrary fluorescence ratio units); higher = stronger transcriptional activation
Conditions: beta-estradiol 1 µM; induction time 4 h
In short: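 For this assay, yeast diploids with a GFP reporter carried barcoded protein tiles at URA3, each fused to an estradiol-inducible synthetic transcription factor. Induction was a 1:5 dilution into SC with 1 uM beta-estradiol for 4 hours at 30 °C, followed by sorting into 8 bins by GFP:mCherry ratio and barcode sequencing. Tiles under 50 reads were dropped, and activation activity was calculated as the read-weighted mean of bin median fluorescence, averaged across barcodes and linearly mapped onto the initial dataset scale.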

Sequence	transcriptional activation domain activity
ATLNLIFTIDLLNFSFWSELPEDERFCIEYRGKRWTGYWSLVAALQRALDEGV	39000
ELYIYSTVRYSFSDYLIPSGYNVCAFLLSCLMFNGDLMVELVLVMRSWFKRIL	66500
GEEDAEEEAKPKKGGKRKAEPVKEEDDEPEEAPAKPKRGRKSAKEQVKEEIKE	42700
TLQRIVLDFFTAPCFSDVIVADILTSFARVFGDLSTVFFTLVWGSCPHWIPPF	61200
RQREGQIERRGEGRAWRTEGGARGGRRKGARREKGTGREGRRRARKKAKRDRP	27600
VANHQIYADWLYVWCLTYFMGMHKDVLIVLKRSLKWVPVLGWGMQIFRFIFLA	70100
MCDLFYTHLISPLFPNMPFWVFFCRLFLLFSLLQCSFICGPFVAVLSYCWLSF	54600
MLSYGSFFFLIFFVFFVISLGFLLSCSWMLYSHIWCCDGPRIFFLFVNLLFVS	38300
MCGGGWAFGLFFFFLYFFFFFLHIALLLPPLETVYFVLFFCMISRGLCFIFFF	65400
LISRLFAVKEVTKIQDINLEFDIACLWPLVPLSSWVMDYIVTVMQAWSLLFNR	59400
TIVLSAMQVGLATQFLVDDYAFSMASYVFSVFAILAPLSAIAAILFVLVLLFA	49900
GHSGNNAHSHLQKPHGHAGKTRSEVGGRSGEGGEGNGGAGGGELGKGVAAGRL	13700
IEKLGITVLQREVVNNGLEISHDFRALRVALCARQPLLQVVWFKNHLPSVYYF	69900
AKRGQNEALAGAKPERGGAGAKQDARAARGRAQGSGVRGAGRGAAGRGQAQQV	41100
MFCLRSWIPILFFLSVSNASPIYLILFVVTTYLLNRPCVYCSLLLGVLVLALF	38500
DLLEDDGQPSSATQKSMKRANRKRQSQKNRIVHLLNRTRRALGVSRAALILLL	57500
GLRNERHFVLFMAYFVLSCWCFCTLGYSYMYLSLDFTQDWPHWPGRTPFILIY	54000
MHYLGLFRALDYNASSLIGVVNIDYTTVIYLIIEELIILLLTLAKRNVATQYA	61800
GASYVIFCLRYYYKGKRRRLTNRLVAYKRALLLVQFVFTHHKWPSYIVILESY	46200
GASSSAAAAGSSEEAPKKKRGRPPKEKKADESGAETEPAPKRKRGRPPKNPKP	21200
RYEAQGGGYKDTGDNKNKAKKGTPERKTKEDGKEEEEKGDKKEEAKKEEGKKE	22800

Sequence	transcriptional activation domain activity
MHDTWFPFLAIVLLFYPTILGPGTFSIYFPHSALPPYMSLHLYVHARFLLLLL	65800
PRQMCRLYRAGYGLFYNQFCAYIDIAFCMMLCQWNLDILETLRYRLEFGRYLA	71100
RKEKGRNANNAKKGQNKRGGAQKEKAKTKVKSGEVSAEPGMKRGKRGRRRAAA	48200
EKNEKPAPVAPAEGAVAEAKEGKSQKKEKKEKKPAEEGSSSKKGGKSAPAAAE	33700
KIHIVNMAQVIVLCIHRFLYGIIPLFEISTCIYFPLLVSLWHITYILFYIVMF	55200
EMVDIFAHMDNIERLIAPFSVLAEHEVFHFNMLRIYYLTLRLLVLLHGVIEVK	75200
TGGFGSTNTGGGGLFGGGNTSNTGGGFGSTAGGFGSTNTTSAFGGAAKPAFGA	19300
GTCGKLGLLCRSMALYSPEVTVVTVSGGGGSSRWVEYLELALRTTGRVAVLLT	64500
MLTEFCFNMLGRHDGKGLISNAVLNAWLKQLSDYFRARFTIWCRINILMDLYR	42100
MMHLSIRDEQKVSLCLTIYLFIFFFFFLILFLWLEGVYLFFLLMTFFLRPYSS	43800
LRAIFLALLPVVYYFTYMLVLFLFLLTYYNPFSPFSHAVRPITPPLISIFSSF	67800
MFAKILVLSWFDSIRWGLFLLLCVMGVFLLFDIPFSFSLLVFSAWYFLFFSRR	33800
LVGLDGRAKINCHFFAYVAFGSASLLVVFHVAFLINVSDVVLLLVMLVGLLRL	31900
VQLSFYRNKIFLTILNYCSGLFVLLFFFYSLFRSVILQNSSLLMLYCACWIYI	60600
TSTTPAGAPPADKPAGSLFGVKPAAAGSSSGGLFGQASNTSVAPSSIATTTAS	28400
EEEAEPKPAASAPAVAPAADEEGDDQGGDDAAKKKKKKKKGKKDEDAEPAPAA	35300
QKPEAAANATAVGEKKEVEEELKKVVEAKPEGKTEAGPAKEEGKAAEAAPAKA	52800
YQLASDRSADCGLLRLVLDAQTFGATAAVIVLDWARPWRFIKSLLRWMHVLST	42000
MAPPTSKTTPDSPDSGAPRKRRRTALACEECRDRKRKCDGVKPVCGACKTRPA	21900
IAILRLYSEPDVDLLRLSSQVLAASLLLDDHFICDIKNIRSVVAMIPRVLTLP	46800
RDDGRRRNEKPQRSKNKGTSSTGSDKKKTTEKKSSSSRKTSGSQVDKKLSSKK	37900

Sequence	transcriptional activation domain activity
MSPPTLREVNVSLPRKFDTPDEPWHRYVTIDLLHYVLGYTLFHPFVSCVLVLC	35200
LANGLVVVLHTEAYDLPDNFASNCWFVIYYTNNSYLRFSSIYRYIFSIVIIVL	45800
DDGESKEKRSRREKSAASEDESRKRSKSRSKSKSKTPSGNDESSNEDTSAGAD	18600
SGDADEDGNGHGTHCSGTVAGKKYGVAKKASVYAVKVLRSNGSGSMSDVVKGV	45000
CEMQFAKDTVVRRYCLLLECLELLPVSAIKAVTRMLHRIVVKCGCVAMFFKMS	70400
AGAAAASTAAEADGEKDGEEGETKPAAPAKKPRKARAKKQVKSEEKAVEEATG	19300
LGYQIVLLLPWTLFCYCWTLCVVIFSLVAMIIPPLGYVCTIFSVTSWRALARV	69800
DNMSLLNLPILEETVSSGQDDKVEPDEEDIWNYLPSSSSQQEDSSRALKKNTN	20900
YTNVYRCIKDEVYLLLSRLSLNWRKQDDYIWLLNLWTIWAAPWRLGNVPIISG	53500
MSYFVFPLLLPSLPRVLPRHSICILHFLLHFRTPPSPNLTHSLLIFLFLLLVR	64000
IAQLRRDLFHAVWRLILTPALAEAYCHGIVIMCGDGVLRRVFPRFLLYSADYP	63900
RGAARCFCVYFFLSLWHFYENHIFFFCSLFFHSLLLCHFFFSFFCVALRLLAC	33800
ADPNGAAAATTAAAPEKKAEEPVTPAKSSAAPASTSSTPASTNTTEKKKKNRL	34700
GDVAATDIGSKGGKKDGKRQKGSAAHVDGEDTSEDKKGAAKTGKRKKGGGAKE	27200
IFLFHINHAVFKSVVWWIGVFFFVYVLITIMPILRYDSPYYSPLSASVWFLYT	45800
AATTDGEASANEGALVPAGEGAAEGEAKKPRQRKPRVARPPRPAGEEPTGEPS	45500
MNQHYGFLNCDLFFYFFFSSLFLIWPFLLFSFSFTVFPYLFTIMETYFGHIKT	28700
MPPKRGRPKKASTPPPAPVEDEAPAPVAAPRGRGRPRKVQPSGDPEQTTAPTP	28500
SRLHARIEYEESSEQFVLAVLGRNGAWVDGVWSGSGSRVPLSSRSQIQIASRV	52800
LGGLSRERFFVYVFTSAFLWYFFPGYLFLALSWFSWVTWIWPDDPVVSQLFGY	39500
IRRHFNRKYHQCLLVVIVLGVYLAIGLNWGRFYLVCWVLLHFCIVILGPLYFL	53400

Sequence	transcriptional activation domain activity
MGFLLLLLILVFFFVLYLFYSFLFFFSFHWACCILYDMWEKERVELYLLLLLL	42800
MPRKAAAATTEIPAEPRRSSRIKEQPKVEPAPKKAPAKPRGKKAKAAEAEAAP	13000
PFFRVHHLYLPSLLQVVNLAILTSHALFNFIPHFYIVCIIVFWEGLLGGLVYV	60500
MKVNRPFACSHEGCEKAFARKGELTKHERLHSGERPFACSHCEKAFGRSDARK	16000
LHFCHRLLSRISSLLFCFLFYCLDVLFLSLFLLCFFFPFFFFLFFLFLFQHFA	54800
NGFLLQVVRWNTRPHKEVVQLLTKYFTGAKHQRLLSENIGLIAEWTDRICQLG	58900
LLHILCFLMNLILTTLTLFVLLRDHLQLSCNVYTGLFFSCHTVSVAFSGVILL	66200
SQWRGVVALKLQIVKTLMKIRMVFPGLMTGLSLEYFSVIWTELNNALPIYLNF	48000
PQSEKSFKSAKNAPEKRAEERPRRRKTCARQNMRTNTNAAHTAHATGAITRRI	30100
MKLPWDDSVTIFLVNYVDFLLLFPFVLLMEFIFDDLPWLSLYVLKHYYNILYM	38600
RVFLFRLMLSLIYTFLGSLCVTGAVWAYRVNWKVNGNQFVLSWMAIWLFAHCN	44800
ALHHVAWWIIIFELFFTVGIIVALGLGGFGPHRGTVCRYLLYTTCSQACNSLY	35200
GQLLVALAREAFTLVTWRTTLQGKLEVEIFPPSDLLLNRYMWYVLHLLDHTSL	13100
GNIHFTLRMALSDPDMTTVRPVLDLLFGLTHFFFVVNTGLFDLIQSCFKIIEA	55100
IGYFVPTTKFHGPARFGYLEYADHIFRLYEILDWRVFVGISLFLHWVFSYSHT	39100
QKKKEAAARNKAKAAPAKEEAAVTPAKVVEKPAAAAAATPAKGGKKMTAALRL	37600
MLHAGVSNKIAKGWPKEGSCDRASFVHEGVLMMCQRSLVTFIVRSLLLMCYYF	36800
IARSRNLPLDVVMYLGSDEENDMMVDTLLLLHDYISKVRSLILRVNFMTLSCA	66700
MDCLLNPVVPCLVCFLPFVCKIAVSLHLPLWSICCVCVSIRIALVCTLIAFII	50400
FRLAFMLICVDVFLALFHILDYVLYIPSRVCTFSAWGTLTCELMTIFLNVTIA	52500
